B1: glmS ribozyme (parent)
chain: AUAAAAGCGCCAGAACUACAGAAAUGUAGUUGACGAGGAGGAGGUUUAUCGAAUUUUCGGCGGAUGCCUCCAAA

Settings in all cases: with glucosamine-6-phosphate
Variants of B1 are the subject of series [1]. The series is described as follows: kcat; higher = faster cleavage; RNA array. The essentials: (§1)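 Barcoded ribozyme variants on sequenced MiSeq chips were transcribed in situ by E. coli RNA polymerase and followed at 37 °C through a hybridised Cy3 probe. Glucosamine-6-phosphate at 40 μM to 10 mM in HEPES/KCl/Mg(OAc)2 buffer was flowed in, and tiles were imaged over ~14 h. Signals were normalised to baseline and to non-cleaving reference variants, and per-tile medians were fit to one- or two-exponential decays to give kobs. Weighted Michaelis–Menten fits across concentrations gave kcat and KM.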

Variants of B1 are the subject of series [2]. The series is described as follows: KM; higher = weaker cofactor use; RNA array. Summed up: as §1
Variants of B1 are the subject of series [3]. The series is described as follows: self-cleavage kobs at 640 uM GlcN6P; higher = faster cleavage; RNA array. The essentials:
as §1

In series [4] the parent is B1. The experiment in a line: self-cleavage kobs at 2500 uM GlcN6P; higher = faster cleavage; RNA array. Summed up:
as §1

The variants in series [5] derive from B1. The experiment in a line: self-cleavage kobs at 10000 uM GlcN6P; higher = faster cleavage; RNA array. Summed up:
as §1

Variants of B1 are the subject of series [6]. The experiment in a line: self-cleavage kobs at 40 uM GlcN6P; higher = faster cleavage; RNA array. The essentials:
as §1

Series [7] covers variants of B1. The experiment in a line: self-cleavage kobs at 160 uM GlcN6P; higher = faster cleavage; RNA array. The essentials:
as §1

± gives the standard error. For part of these data: Variants at the floor of the assay were thinned out. Bounds are passed on as bounds.

On to G13U U31A, for which the kcat (usually the number of substrate molecules converted per active site and unit of time at saturation) in the series with glucosamine-6-phosphate [1] is 0.000483 ± 4.9e-05 s⁻¹. The KM (usually the substrate concentration at which the rate is half of its maximum) with glucosamine-6-phosphate [2] was 3730 ± 740 µM. For the same variant, the “self-cleavage kobs at 640 uM GlcN6P” value in the series with glucosamine-6-phosphate [3] was 6.93e-05 ± 1.3e-05 s⁻¹. The “self-cleavage kobs at 2500 uM GlcN6P” value with glucosamine-6-phosphate [4] is 0.000216 ± 3.6e-05 s⁻¹. In addition, in the series with glucosamine-6-phosphate [5], the “self-cleavage kobs at 10000 uM GlcN6P” value is 0.000346 ± 3.6e-05 s⁻¹.

For C11U C16U C71U, the kcat with glucosamine-6-phosphate [1] is 0.000649 ± 0.00014 s⁻¹. In addition, the KM in the series with glucosamine-6-phosphate [2] was 1100 ± 540 µM. Also, the “self-cleavage kobs at 40 uM GlcN6P” value with glucosamine-6-phosphate [6] was found to be 4.58e-05 ± 1.8e-05 s⁻¹. Also, the “self-cleavage kobs at 640 uM GlcN6P” value in the series with glucosamine-6-phosphate [3] came out at 0.000215 ± 4.6e-05 s⁻¹. In the series with glucosamine-6-phosphate [4], the “self-cleavage kobs at 2500 uM GlcN6P” value turned out to be 0.000443 ± 0.00011 s⁻¹. Besides, the “self-cleavage kobs at 10000 uM GlcN6P” value with glucosamine-6-phosphate [5] is 0.000614 ± 0.00012 s⁻¹.

With G66C C71G, the kcat with glucosamine-6-phosphate [1] worked out at 4.2e-05 ± 2.4e-06 s⁻¹. The Michaelis-Menten constant (KM) in the series with glucosamine-6-phosphate [2] came out at 108 ± 50 µM. For the same variant, in the series with glucosamine-6-phosphate [3], the “self-cleavage kobs at 640 uM GlcN6P” value stood at 4e-05 ± 1.4e-05 s⁻¹. Also, in the series with glucosamine-6-phosphate [4], the “self-cleavage kobs at 2500 uM GlcN6P” value is 4.07e-05 ± 1.1e-05 s⁻¹. Moreover, the “self-cleavage kobs at 10000 uM GlcN6P” value with glucosamine-6-phosphate [5] was 3.81e-05 ± 1.5e-05 s⁻¹.

Regarding C61A C67G, the kcat with glucosamine-6-phosphate [1] worked out at 2.3e-05 ± 5e-06 s⁻¹. The “self-cleavage kobs at 640 uM GlcN6P” value with glucosamine-6-phosphate [3] was found to be 2.63e-05 ± 1.3e-05 s⁻¹.

Turning to G40A G41A U55G, in the series with glucosamine-6-phosphate [1], the kcat was 8.3e-05 ± 7.3e-06 s⁻¹. The Michaelis constant (KM) with glucosamine-6-phosphate [2] was determined as 578 ± 220 µM. For the same variant, the “self-cleavage kobs at 640 uM GlcN6P” value with glucosamine-6-phosphate [3] was found to be 4.12e-05 ± 1.4e-05 s⁻¹. Besides, the “self-cleavage kobs at 2500 uM GlcN6P” value with glucosamine-6-phosphate [4] worked out at 7.85e-05 ± 2.1e-05 s⁻¹. Further, the “self-cleavage kobs at 10000 uM GlcN6P” value in the series with glucosamine-6-phosphate [5] turned out to be 7.52e-05 ± 1.5e-05 s⁻¹.

As to A12G U55G, the kcat in the series with glucosamine-6-phosphate [1] is 0.00137 ± 0.00037 s⁻¹. In the series with glucosamine-6-phosphate [2], the Michaelis constant (KM) is 6630 ± 3200 µM. In addition, the “self-cleavage kobs at 640 uM GlcN6P” value with glucosamine-6-phosphate [3] is 0.000113 ± 1.7e-05 s⁻¹. In addition, the “self-cleavage kobs at 2500 uM GlcN6P” value in the series with glucosamine-6-phosphate [4] is 0.000784 ± 0.00017 s⁻¹. Further, the “self-cleavage kobs at 10000 uM GlcN6P” value with glucosamine-6-phosphate [5] came out at 0.000815 ± 5.8e-05 s⁻¹.

On to A6G G66A, for which the kcat with glucosamine-6-phosphate [1] amounted to 0.000421 ± 2.1e-05 s⁻¹. The Michaelis constant (KM) in the series with glucosamine-6-phosphate [2] is 2650 ± 210 µM. Also, in the series with glucosamine-6-phosphate [3], the “self-cleavage kobs at 640 uM GlcN6P” value stood at 8.05e-05 ± 1.4e-05 s⁻¹. Further, in the series with glucosamine-6-phosphate [4], the “self-cleavage kobs at 2500 uM GlcN6P” value amounted to 0.000217 ± 5.1e-05 s⁻¹. For the same variant, in the series with glucosamine-6-phosphate [5], the “self-cleavage kobs at 10000 uM GlcN6P” value is 0.000325 ± 7.5e-05 s⁻¹.

As for C11U G38A G41A A42G, in the series with glucosamine-6-phosphate [1], the kcat came to 1.14e-05 ± 5.7e-06 s⁻¹. Moreover, in the series with glucosamine-6-phosphate [6], the “self-cleavage kobs at 40 uM GlcN6P” value is less than 1e-05 s⁻¹. In addition, the “self-cleavage kobs at 160 uM GlcN6P” value in the series with glucosamine-6-phosphate [7] was less than 1e-05 s⁻¹.

Consider G37A U46G, for which the kcat with glucosamine-6-phosphate [1] turned out to be 0.000363 ± 0.00014 s⁻¹. The “self-cleavage kobs at 160 uM GlcN6P” value with glucosamine-6-phosphate [7] turned out to be 4.31e-05 ± 1.7e-05 s⁻¹. Also, in the series with glucosamine-6-phosphate [3], the “self-cleavage kobs at 640 uM GlcN6P” value came out at 0.000102 ± 1.4e-05 s⁻¹. In addition, the “self-cleavage kobs at 2500 uM GlcN6P” value with glucosamine-6-phosphate [4] was 0.000159 ± 2.3e-05 s⁻¹. Also, the “self-cleavage kobs at 10000 uM GlcN6P” value with glucosamine-6-phosphate [5] stood at 0.000421 ± 6.2e-05 s⁻¹.

Turning to G13U U46G A52C C67U C70G, in the series with glucosamine-6-phosphate [1], the kcat was found to be 2.41e-05 ± 6.8e-06 s⁻¹.

For the variant A14U A42U, the kcat with glucosamine-6-phosphate [1] is 3.26e-05 ± 1.5e-06 s⁻¹. The KM with glucosamine-6-phosphate [2] worked out at 884 ± 270 µM. Besides, in the series with glucosamine-6-phosphate [5], the “self-cleavage kobs at 10000 uM GlcN6P” value worked out at 3.02e-05 ± 7.7e-06 s⁻¹.

As for A53C G66U, the kcat in the series with glucosamine-6-phosphate [1] came to 0.000484 ± 6.4e-05 s⁻¹. Further, in the series with glucosamine-6-phosphate [2], the KM turned out to be 1770 ± 450 µM. Moreover, the “self-cleavage kobs at 160 uM GlcN6P” value in the series with glucosamine-6-phosphate [7] was found to be 3.36e-05 ± 1.5e-05 s⁻¹. The “self-cleavage kobs at 640 uM GlcN6P” value with glucosamine-6-phosphate [3] stood at 0.000128 ± 3.6e-05 s⁻¹. The “self-cleavage kobs at 2500 uM GlcN6P” value with glucosamine-6-phosphate [4] was found to be 0.000344 ± 8.3e-05 s⁻¹. Further, the “self-cleavage kobs at 10000 uM GlcN6P” value with glucosamine-6-phosphate [5] turned out to be 0.00039 ± 7.6e-05 s⁻¹.

As for U54A, in the series with glucosamine-6-phosphate [1], the kcat worked out at 0.0591 ± 0.015 s⁻¹. The KM with glucosamine-6-phosphate [2] was 2360 ± 680 µM. Moreover, the “self-cleavage kobs at 40 uM GlcN6P” value with glucosamine-6-phosphate [6] amounted to 0.00106 ± 2e-05 s⁻¹. Also, the “self-cleavage kobs at 160 uM GlcN6P” value with glucosamine-6-phosphate [7] amounted to 0.00285 ± 0.00013 s⁻¹. Moreover, the “self-cleavage kobs at 640 uM GlcN6P” value in the series with glucosamine-6-phosphate [3] is 0.0124 ± 0.00049 s⁻¹. In addition, in the series with glucosamine-6-phosphate [4], the “self-cleavage kobs at 2500 uM GlcN6P” value came to 0.03 ± 0.0018 s⁻¹. The “self-cleavage kobs at 10000 uM GlcN6P” value in the series with glucosamine-6-phosphate [5] worked out at 0.0497 ± 0.0024 s⁻¹.

Turning to A14G A15U U30G, the kcat with glucosamine-6-phosphate [1] is 0.0196 ± 0.0037 s⁻¹. Besides, the KM with glucosamine-6-phosphate [2] was 263 ± 69 µM. The “self-cleavage kobs at 40 uM GlcN6P” value in the series with glucosamine-6-phosphate [6] was determined as 0.00266 ± 0.00038 s⁻¹. Further, the “self-cleavage kobs at 160 uM GlcN6P” value with glucosamine-6-phosphate [7] turned out to be 0.00652 ± 0.0021 s⁻¹. In addition, the “self-cleavage kobs at 640 uM GlcN6P” value with glucosamine-6-phosphate [3] was determined as 0.0127 ± 0.0037 s⁻¹. Also, the “self-cleavage kobs at 2500 uM GlcN6P” value with glucosamine-6-phosphate [4] was found to be 0.0232 ± 0.0085 s⁻¹.

Regarding C68A C71G, in the series with glucosamine-6-phosphate [1], the kcat turned out to be 2.77e-05 ± 1e-05 s⁻¹. For the same variant, the “self-cleavage kobs at 160 uM GlcN6P” value with glucosamine-6-phosphate [7] came to 3.29e-05 ± 1e-05 s⁻¹. For the same variant, the “self-cleavage kobs at 2500 uM GlcN6P” value with glucosamine-6-phosphate [4] was determined as 3.63e-05 ± 9.6e-06 s⁻¹.

In the case of G13C C67G, the kcat in the series with glucosamine-6-phosphate [1] came to 1.33e-05 ± 8.3e-07 s⁻¹. The KM with glucosamine-6-phosphate [2] is 189 ± 76 µM.

As to A12G G38U A39U, the kcat in the series with glucosamine-6-phosphate [1] was less than 1e-05 s⁻¹. Besides, the “self-cleavage kobs at 40 uM GlcN6P” value with glucosamine-6-phosphate [6] was less than 1e-05 s⁻¹. The “self-cleavage kobs at 640 uM GlcN6P” value in the series with glucosamine-6-phosphate [3] was less than 1e-05 s⁻¹.

Values taken from the supplement of paper PMC7125110.
